Results: patent US20150258217A1, “Methods of Synthesizing and Using Peg-Like Fluorochromes” (THE GENERAL HOSPITAL CORPORATION, priority 2012, published 2015)

Key:
[1] = PN and peptide size (volume, diameter) by FPLC gel filtration (Superdex 200, globular protein standards); type: physicochemical; settings: for Molecular Volume: Table 3C, proposed Example 4 compounds; for diameter: FPLC gel filtration; for Volume FPLC / Volume FPLC (diameter): Table 5; for Volume FPLC: globular protein equivalent molecular weight; for Molecular Volume FPLC: Table 3B, dipeptides; for Volume FPLC (diameter): converted from globular protein equivalent MW
Protocol: DOTA-Lys-Cys(IR783)-NH2 is then dissolved in DMSO, with 2 equivalents of an NHS ester of PEG and 6 equivalents of DIPEA. The reaction was at room temperature for 5 days. Product was purified by reverse phase HPLC separation. Product molecular weight was by matrix-assisted laser desorption ionization time-of-flight mass spectrometry (MALDI-TOF MS), with product molecular volume by size exclusion FPLC using globular protein standards (GE Healthcare life science AKTApurifier 10).
The mass spec of low molecular weights (MW) were obtained by MS-ESI Micromass (Waters) and high MW molecules were determined through MALDI-TOF analyses at the Tufts University Core Facility. RP-HPLC (Varian ProStar detector and delivery modules) employed an eluant A (0.1% TFA/water) and eluant B (0.1% TFA and 9.9% water in acetonitrile). Probe size (volume) was determined by FPLC using an ÄKTA Purifier 10 and Superdex™ 200 10/300GL column (GE Healthcare) with a running buffer of 0.05 M sodium phosphate, 0.15 M NaCl (0.1% Tween, pH 7.2) and flow rate of 0.8 ml/min. Standards (GE Healthcare) were Ferritin, Ribonuclease A, Carbonic Anhydrase, and Conalbumin and Blue Dextran 2000. To obtain probe volumes, Mr (apparent molecular weight based on size exclusion retention) was plotted versus Kav. Kav=(Ve−Vo)/(Vt−Vo), Vt=total volume, Ve=elution volume, Vo=void volume.
The column was calibrated with globular protein standards, and globular protein equivalent molecular weights (in kDa) were obtained (Table 5, column 5). These were converted to PN diameters in nm using the relationship: Radius in nm=[…] where M is the molecular weight of a globular protein expressed in daltons (see Erickson, “Size and Shape of Protein Molecules at the Nanometer Level Determined by Sedimentation, Gel Filtration, and Electron Microscopy”, Biological Procedures Online 2009, 11(1): 32-50). PN's diameters ranged from 3.0 to 11.8 nm (see FIG. 23a). Using PEG's of 5 kDa and 30 kDa, selected for their low polydispersity, PN's were synthesized using IR-783, Cy3 and Fluorescein (see FIG. 22a) and their sizes determined (see FIGS. 23a, 23b, 23c). With the 5 kDa PEG and these three fluorochromes (see the magenta chromatograms in FIGS. 22a, 23b and 23c) PN diameters were 4.3 nm. With the 30 kDa PEG and these three fluorochromes (blue chromatograms, 23a, 23b, 23c), PN diameters were now 10.0 nm. For reference, the diameter of a 67 kDa albumin determined by this method was 5.4 nm.

[2] = Quantum yield determination; type: physicochemical; settings: for Quant. Yield: Table 5, in PBS
Protocol: Quantum yields were determined as described in Demas et al., “Measurement of photoluminescence quantum yields. Review”, Journal of Physical Chemistry 75, 991-1024 (1971), and Shao et al., “Facile Synthesis of Monofunctional Pentamethine Carbocyanine Fluorophores. Dyes and pigments: an international journal 90, 119-122 (2011). For IR-783 a reference quantum yield of 0.043 was used (see Li et al., “Synthesis and characterization of glucosamine-bound near-infrared probes for optical imaging”, Organic letters 8, 3623-3626, 2006); for fluorescein a reference quantum yield was […] (see Sjoback et al., “Absorption and florescence properties of fluorescein”, Spectrohimica Acta Part A 51, L7-L21, 1995). For Cy3 a reference quantum yield of 0.31 was used (Luminprobe Inc). For PN(783)'s, excitation was at 730 nm and emission spectra were recorded from 765 nm to 870 nm in PBS and maximum emission used. For PN(545)'s, excitation was at 515 nm and emission spectra were recorded from 538 nm to 700 nm in PBS and maximum emission used. For PN(497)'s, excitation was at 450 nm and emission spectra were recorded from 475 nm to 620 nm in PBS and maximum emission used. Absorbance of each probe was adjusted less than 0.1. Measurements were made in triplicate and are expressed as mean±SD.

[3] = test system: HT-29, a human colon carcinoma cell line; assay: PN and peptide binding to cells (non-specific binding, FACS); type: cell-based; settings: HT-29 cells; for Cell NSB (percent of cells with fluorescence higher than unstained cell): 30 min at 37° C., FACS
Protocol: HT-29, a human colon carcinoma cell line, was from the American Tissue Culture Collection and maintained according to their instructions. Cells were seeded on 24-well plates at 5×10^5 cells/well in culture medium (RPMI 1640 with 10% FBS) the day before the assay. The day of assay, medium was removed, wells rinsed twice with DPBS (+Ca, +Mg), and 100 μl of 2% FBS/DPBS (+Ca, +Mg) added. 100 μL of Nanoprobes (2 μM) in DPBS (+Ca, +Mg) was added to cells and incubated for 30 min at 37° C. (Probe concentrations were determined spectrophotometrically (783 nm, extinction coefficient of 314 471 cm^−1 M^−1 for IR-783; 497 nm, extinction coefficient of 68 000 cm^−1 M^−1 for Fluorescein; 545 nm, extinction coefficient of 150 000 cm^−1 M^−1 for Cy3). Cells were detached by Trypsin/EDTA and assayed for fluorescence by FACS (BD 7 laser LSR2 for nanoprobes with IR-783; BD 3 laser LSR2 for nanoprobes with Fluorescein or Cy3).

[4] = Probe volume determination by FPLC (Superdex 75, globular protein standards); type: physicochemical; settings: Table 3A, tetrapeptides
Protocol: Size (volume) was determined by FPLC using an ÄKTA Purifier 10 and Superdex™ 75 10/300 GL column (GE Healthcare Lifesciences) with a running buffer of 0.05 M sodium phosphate, 0.15 M NaCl (0.1% Tween, pH 7.2) and flow rate of 0.5 ml/min. The protein standards (Gel Filtration Calibration Kit LMW, code no. 28-4038-41, GE Healthcare) (0.3 mg/ml, mixture of Aprotinin, Ribonuclease A, Ovalbumin, and Conalbumin) and Blue Dextran 2000 were used. To obtain volumes, Mr (apparent molecular weight based on size exclusion retention) was plotted versus Kav. Kav=(Ve−Vo)/[…], Vt=total volume, Ve=elution volume, Vo=void volume.

[5] = Table 3A, CyAL5.5 tetrapeptides
[6] = Table 3C, proposed Example 4 compounds

Q: Which “Molecular Volume” value [1] does the source give for 5 kDa PEG-Cys(IR-783)-OH here?
A: >20 kDa

Q: With CC1(C)C(/C=C/C=C/C=C/C=C2/N(CCCCS(=O)(=O)O)c3ccc4ccccc4c3C2(C)C)=[N+](CCCCS(=O)(=O)O)c2ccc3ccccc3c21 [ICG, Indocyanine green, reference compound] as the compound, how does the “Quantum Yield” value ([2]; Table 3B, IR-783 dipeptides) read?
A: 0.041

Q: With (DOTA)Lys(PEG5K)-Cys(Cy3) [PN(545)4.3] as the compound, how does the diameter [1] read?
A: 4.3 nm

Q: And the “Volume FPLC” value [1]?
A: 35 kDa

Q: And the “Quant. Yield” value [2]?
A: 0.59

Q: And the “Cell NSB (percent of cells with fluorescence higher than unstained cell)” value [3]?
A: 31%

Q: Which results are given for (DOTA)Lys(PEG5K)-Cys(FI) [PN(497)4.3]?
A: diameter [1]: 4.3 nm; Volume FPLC [1]: 35 kDa; Quant. Yield [2]: 0.59; Cell NSB (percent of cells with fluorescence higher than unstained cell) [3]: 0.2%

Q: With (DOTA)Lys(PEG30K)-Cys(FI) [PN(497)10.0] as the compound, how does the “Volume FPLC” value [1] read?
A: 435 kDa

Q: What about the “Quant. Yield” value [2] of the same compound?
A: 0.60

Q: What about the “Cell NSB (percent of cells with fluorescence higher than unstained cell)” value [3] of the same compound?
A: 0.1%

Q: For “(DOTA)Lys(PEG40K)-Cys(IR-783) [PN(783)11.7]”, which “Molecular Volume FPLC” value [1] is on record?
A: 690 kDa

Q: What about the “Volume FPLC (diameter)” value [1] of the same compound?
A: 11.7 nm

Q: What about the “Volume FPLC” value [1] of the same compound?
A: 690 kDa

Q: And the “Quantum Yield” value ([2]; Table 3B, IR-783 dipeptides)?
A: 0.18

Q: And the “Quant. Yield” value [2]?
A: 0.16

Q: For (DOTA)Lys-Cys(Cy3), which “Volume FPLC” value [1] is on record?
A: 0.6 kDa

Q: What about the “Quant. Yield” value [2] of the same compound?
A: 0.32

Q: And the “binding to cells (FACS, FIG. 30)” value [3]?
A: binds to cells

Q: And the “Cell NSB (percent of cells with fluorescence higher than unstained cell)” value [3]?
A: 98%

Q: Which “Quant. Yield” value [2] does the source give for “(DOTA)Lys-Cys(Fluorescein) [(DOTA)Lys-Cys(FI)]” here?
A: 0.50

Q: What about the “binding to cells (FACS, FIG. 30)” value [3] of the same compound?
A: binds cells very weakly

Q: What about the “Cell NSB (percent of cells with fluorescence higher than unstained cell)” value [3] of the same compound?
A: 0.4%

Q: Which diameter [1] does the source give for (DOTA)Lys-Cys(IR-783) here?
A: 1.1 nm

Q: And the “Molecular Volume FPLC” value [1]?
A: 0.600 kDa

Q: And the “Volume FPLC (diameter)” value [1]?
A: 1.10 nm

Q: And the “Volume FPLC” value [1]?
A: 0.600 kDa

Q: And the “Quantum Yield” value ([2]; Table 3B, IR-783 dipeptides)?
A: 0.053

Q: And the “Quant. Yield” value [2]?
A: 0.053

Q: And the “binding to cells (FACS, FIG. 30)” value [3]?
A: binds cells

Q: What about the “Cell NSB (percent of cells with fluorescence higher than unstained cell)” value [3] of the same compound?
A: 95%

Q: Which “Molecular Volume” value [4] does the source give for “DOTA-Lys(CyAL5.5)-Lys(5 kDa PEG)- βAla -Lys(N3)-NH2 [Compound 5b]” here?
A: <1 kDa

Q: And the “Quantum Yield” value [2, 5]?
A: 0.17

Q: With “DOTA-Lys(CyAL5.5)-Lys(NH2)-β-Ala-Lys(N3) [Compound 5a]” as the compound, how does the “Molecular Volume” value [4] read?
A: <1 kDa

Q: And the “Quantum Yield” value [2, 5]?
A: 0.061

Q: Which “Molecular Volume” value [4] does the source give for “DOTA-Lys(CyAL5.5)-Lys(NH2)-β-Ala-Lys(N3-DBCO-PEG4-cRGD)-NH2 [Compound 6a]” here?
A: <1 kDa

Q: And the “Quantum Yield” value [2, 5]?
A: 0.082

Q: With “DOTA-Lys(CyAL5.5)-Lys- βala -Lys(sPEG-RAD) [Compound 6b]” as the compound, how does the “Molecular Volume” value [4] read?
A: <1 kDa

Q: What about the “Quantum Yield” value [2, 5] of the same compound?
A: 0.081

Q: With DOTA-Lys(PEG 40 kDa)-Cys(Fl)-NH2 as the compound, how does the “Molecular Volume” value [1] read?
A: 690 kDa

Q: What about the “Quantum Yield” value [2, 6] of the same compound?
A: 0.60

Q: With NH2-Cys(IR-783)-OH as the compound, how does the “Molecular Volume” value [1] read?
A: <2 kDa

Q: What about the “Quantum Yield” value [2, 6] of the same compound?
A: <0.10
